Measurements from article doi:10.1101/133777 (bioRxiv, 2017).

Target: 3HA-3FLAG-SPAK (mouse, UniProt Q9Z1W9 1-556)
Experiment: pull-down

binding result: binds
B1: BioEase-FBXL5 (natural protein)
chain: MAPFPEEVDVFTAPHWRMKQLVGLYCDKLSKTNFSNNNDFRALLQSLYATFKEFKMHEQIENEYIIGLLQQRSQTIYNVHSDNKLSEMLSLFEKGLKNVKNEYEQLNYAKQLKERLEAFTRDFLPHMKEEEEVFQPMLMEYFTYEELKDIKKKVIAQHCSQKDTAELLRGLSLWNHAEERQKFFKYSVDEKSDKEAEVSEHSTGITHLPPEVMLSIFSYLNPQELCRCSQVSMKWSQLTKTGSLWKHLYPVHWARGDWYSGPATELDTEPDDEWVKNRKDESRAFHEWDEDADIDESEESAEESIAISIAQMEKRLLHGLIHNVLPYVGTSVKTLVLAYSSAVSSKMVRQILELCPNLEHLDLTQTDISDSAFDSWSWLGCCQSLRHLDLSGCEKITDVALEKISRALGILTSHQSGFLKTSTSKITSTAWKNKDITMQSTKQYACLHDLTNKGIGEEIDNEHPWTKPVSSENFTSPYVWMLDAEDLADIEDTVEWRHRNVESLCVMETASNFSCSTSGCFSKDIVGLRTSVCWQQHCASPAFAYCGHSFCCTGTALRTMSSLPESSAMCRKAARTRLPRGKDLIYFGSEKSDQETGRVLLFLSLSGCYQITDHGLRVLTLGGGLPYLEHLNLSGCLTITGAGLQDLVSACPSLNDEYFYYCDNINGPHADTASGCQNLQCGFRACCRSGE
modifications: biotin (biotinylated FBXL5, BioEase tag)
